Like-named read-outs stand apart in the source and are kept apart here.
Key:
Experiment in all cases: other fluorescence titration
[1] = target: T1, PTEN protein labeled with QSY 35 (UniProt P60484 1-403, QSY 35 (label as for the MKP proteins))
[2] = target: T1, PTEN protein labeled with QSY 35; remark: listed apart in the source
[3] = target: T1, PTEN protein labeled with QSY 35; remark: listed apart in the source

T1 sequence (P60484 whole entry): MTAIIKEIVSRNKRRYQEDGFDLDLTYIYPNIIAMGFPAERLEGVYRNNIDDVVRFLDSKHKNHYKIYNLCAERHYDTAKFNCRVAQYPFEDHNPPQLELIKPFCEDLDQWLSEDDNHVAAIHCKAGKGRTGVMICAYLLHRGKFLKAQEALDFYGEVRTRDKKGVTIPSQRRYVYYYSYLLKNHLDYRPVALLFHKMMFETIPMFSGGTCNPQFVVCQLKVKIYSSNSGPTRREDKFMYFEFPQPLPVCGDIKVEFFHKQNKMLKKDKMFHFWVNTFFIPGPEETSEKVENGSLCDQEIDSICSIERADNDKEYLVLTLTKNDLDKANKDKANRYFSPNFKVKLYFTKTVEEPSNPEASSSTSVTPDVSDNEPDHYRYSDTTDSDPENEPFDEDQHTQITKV

B1: Prdx1 protein labeled with Alexa Fluor 546 (enzyme, UniProt Q06830 1-199, looked up)
chain: MSSGNAKIGHPAPNFKATAVMPDGQFKDISLSDYKGKYVVFFFYPLDFTFVCPTEIIAFSDRAEEFKKLNCQVIGASVDSHFCHLAWVNTPKKQGGLGPMNIPLVSDPKRTIAQDYGVLKADEGISFRGLFIIDDKGILRQITVNDLPVGRSVDETLRLVQAFQFTDKHGEVCPAGWKPGSDTIKPDVQKSKEYFSKQK
modifications: Alexa Fluor 546 on primary amines (succinimidylester of Alexa Fluor 546 carboxylic acid)
Work on B1 yielded a Kd [1] of 220 ± 22.5 nM, a Kd [2] of 215 ± 19.5 nM and a Kd [3] of 247 nM.

From article PMC3936261 (Oncogene, 2013)
